Here are results for five molecules from PMC10397247.

Holding throughout (experiment): two-hybrid library CCNG1;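 note: natural log of median RNA to DNA barcode read ratio; higher means stronger binding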
Assay [1] deals with T1, 4H2134-bH.
T1 chain: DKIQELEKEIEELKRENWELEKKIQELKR

Assay [2] has as its target T2, 4H2143-bH.
T2 chain: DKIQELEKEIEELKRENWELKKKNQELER

The target in assay [3] is T3, 4H2223-bH.
T3 chain: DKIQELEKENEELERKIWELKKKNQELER

Assay [4] concerns the target T4, 4H2438-bH.
T4 chain: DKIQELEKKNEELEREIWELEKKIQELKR

Assay [5] has as its target T5, 4H2473-bH.
T5 chain: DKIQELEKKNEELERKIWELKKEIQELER

For assay [6], the target named is T6, 4H2503-bH.
T6 chain: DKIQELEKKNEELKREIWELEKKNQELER

Assay [7] deals with T7, 4H2588-bH.
T7 chain: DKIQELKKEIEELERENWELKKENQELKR

Assay [8] has as its target T8, 4H2692-bH.
T8 chain: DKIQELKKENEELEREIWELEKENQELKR

Assay [9] deals with T9, 4H2717-bH.
T9 chain: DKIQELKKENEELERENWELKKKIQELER

The target of assay [10] is T10, 4H2839-bH.
T10 chain: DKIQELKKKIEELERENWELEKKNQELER

The target in assay [11] is T11, 4H2915-bH.
T11 chain: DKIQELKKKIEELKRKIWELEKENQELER

The target in assay [12] is T12, 4H3057-bH.
T12 chain: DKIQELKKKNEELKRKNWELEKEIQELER

Assay [13] has as its target T13, 4H319-bH.
T13 chain: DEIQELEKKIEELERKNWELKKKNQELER

For assay [14], the target named is T14, 4H3277-bH.
T14 chain: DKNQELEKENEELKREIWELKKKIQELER

For assay [15], the target named is T15, 4H348-bH.
T15 chain: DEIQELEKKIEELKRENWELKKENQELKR

Assay [16] concerns the target T16, 4H3858-bN.
T16 chain: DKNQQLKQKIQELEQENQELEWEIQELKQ

For assay [17], the target named is T17, 4H40-bH.
T17 chain: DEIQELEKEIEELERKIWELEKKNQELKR

The target in assay [18] is T18, 4H477-bH.
T18 chain: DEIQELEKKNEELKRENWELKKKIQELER

For assay [19], the target named is T19, 4H492-bH.
T19 chain: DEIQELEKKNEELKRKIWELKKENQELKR

The target in assay [20] is T20, 4H741-bH.
T20 chain: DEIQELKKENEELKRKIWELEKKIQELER

Assay [21] addresses T21, O10-bH.
T21 chain: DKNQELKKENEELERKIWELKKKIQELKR
The following applies: mean of both orientations.

For assay [22], the target named is T22, O11-bH.
T22 chain: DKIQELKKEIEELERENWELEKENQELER

The target of assay [23] is T23, O12-bH.
T23 chain: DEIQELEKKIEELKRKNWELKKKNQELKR

For assay [24], the target named is T24, O13-bH.
T24 chain: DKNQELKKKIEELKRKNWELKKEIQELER

For assay [25], the target named is T25, O14-bH.
T25 chain: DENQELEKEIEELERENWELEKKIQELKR

The target in assay [26] is T26, O15-bH.
T26 chain: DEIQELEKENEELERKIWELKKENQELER

The target of assay [27] is T27, O16-bH.
T27 chain: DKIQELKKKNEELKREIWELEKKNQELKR

Assay [28] has as its target T28, O2-bH.
T28 chain: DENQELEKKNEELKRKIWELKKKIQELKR

Assay [29] concerns the target T29, O3-bH.
T29 chain: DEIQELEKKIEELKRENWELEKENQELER

The target in assay [30] is T30, O4-bH.
T30 chain: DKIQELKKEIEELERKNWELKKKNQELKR

Assay [31] has as its target T31, O5-bH.
T31 chain: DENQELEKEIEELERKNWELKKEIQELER

Assay [32] addresses T32, O6-bH.
T32 chain: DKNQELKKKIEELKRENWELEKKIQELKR

For assay [33], the target named is T33, O7-bH.
T33 chain: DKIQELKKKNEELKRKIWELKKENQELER

Assay [34] deals with T34, O8-bH.
T34 chain: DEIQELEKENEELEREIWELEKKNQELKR

In assay [35] the target is T35, O9-bH.
T35 chain: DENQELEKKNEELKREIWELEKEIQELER
The conditions noted are these: mean of both orientations.

Assay [36] concerns the target T36, 4H1387-bA.
T36 chain: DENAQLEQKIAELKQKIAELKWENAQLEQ

Assay [37] has as its target T37, 4H1406-bA.
T37 chain: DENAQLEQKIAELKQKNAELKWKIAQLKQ

In assay [38] the target is T38, 4H3592-bA.
T38 chain: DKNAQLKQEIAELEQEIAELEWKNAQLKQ

The target in assay [39] is T39, 4H3601-bA.
T39 chain: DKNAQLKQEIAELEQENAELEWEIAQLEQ

The target in assay [40] is T40, 4H3907-bA.
T40 chain: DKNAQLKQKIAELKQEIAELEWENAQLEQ

The target of assay [41] is T41, 4H4038-bA.
T41 chain: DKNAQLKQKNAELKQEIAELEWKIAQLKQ

In assay [42] the target is T42, P12A-bN.
T42 chain: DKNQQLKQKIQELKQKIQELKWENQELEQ

Assay [43] deals with T43, P1A-bN.
T43 chain: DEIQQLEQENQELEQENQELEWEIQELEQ

In assay [44] the target is T44, P2A-bN.
T44 chain: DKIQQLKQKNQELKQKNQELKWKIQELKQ

Assay [45] addresses T45, P3A-bN.
T45 chain: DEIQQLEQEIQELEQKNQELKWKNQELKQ

The target of assay [46] is T46, P4A-bN.
T46 chain: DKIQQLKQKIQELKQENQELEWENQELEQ

Assay [47] addresses T47, P5A-bN.
T47 chain: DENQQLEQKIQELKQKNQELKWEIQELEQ

For assay [48], the target named is T48, P6A-bN.
T48 chain: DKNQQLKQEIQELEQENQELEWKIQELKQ

Assay [49] has as its target T49, P7A-bN.
T49 chain: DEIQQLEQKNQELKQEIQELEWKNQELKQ

The target of assay [50] is T50, P8A-bN.
T50 chain: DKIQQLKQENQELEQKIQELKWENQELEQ

For assay [51], the target named is T51, P9A-bN.
T51 chain: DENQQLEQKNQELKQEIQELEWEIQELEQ

The target of assay [52] is T52, O11-bP.
T52 chain: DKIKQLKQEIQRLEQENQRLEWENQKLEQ

Assay [53] addresses T53, O12-bP.
T53 chain: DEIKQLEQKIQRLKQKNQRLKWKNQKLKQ

Assay [54] deals with T54, O13-bP.
T54 chain: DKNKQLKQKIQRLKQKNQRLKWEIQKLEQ

Assay [55] deals with T55, O14-bP.
T55 chain: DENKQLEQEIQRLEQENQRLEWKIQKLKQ

Assay [56] addresses T56, O15-bP.
T56 chain: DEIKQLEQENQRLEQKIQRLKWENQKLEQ

Assay [57] concerns the target T57, O16-bP.
T57 chain: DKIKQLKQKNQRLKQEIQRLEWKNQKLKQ

Assay [58] has as its target T58, O2-bP.
T58 chain: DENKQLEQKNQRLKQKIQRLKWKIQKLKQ

In assay [59] the target is T59, O3-bP.
T59 chain: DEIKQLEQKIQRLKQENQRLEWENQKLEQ

Assay [60] deals with T60, O4-bP.
T60 chain: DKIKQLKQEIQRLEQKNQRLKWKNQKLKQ

In assay [61] the target is T61, O5-bP.
T61 chain: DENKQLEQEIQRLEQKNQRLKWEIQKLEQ

In assay [62] the target is T62, O6-bP.
T62 chain: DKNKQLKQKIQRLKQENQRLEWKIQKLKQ

The target in assay [63] is T63, O7-bP.
T63 chain: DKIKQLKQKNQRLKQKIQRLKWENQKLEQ

Assay [64] has as its target T64, O8-bP.
T64 chain: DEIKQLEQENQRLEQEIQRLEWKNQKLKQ

The target in assay [65] is T65, O9-bP.
T65 chain: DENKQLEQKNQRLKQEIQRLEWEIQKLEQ

With DKIQELEKEIEELKRENWELEKKIQELKR [4H2134-bH], the interaction score was 0.746 in assay [1]; 0.0686 in [2]; -0.653 in assay [3]; 0.0398 in [4]; 0.459 in [5]; 1.45 in assay [6]. Besides, the interaction score turned out to be 1.01 in [7]; 0.18 in assay [8]; 1.07 in [9]; 0.785 in [10]; 1.56 in assay [11]; 1.45 in assay [12]. Moreover, the interaction score is 0.925 in [13]; -0.74 in [14]; -0.551 in [15]; 0.573 in assay [16]; -0.995 in assay [17]; 1.08 in assay [18]. Besides, the interaction score stood at 0.362 in [19] and 0.37 in assay [20].
For the molecule DKNQELKKENEELERKIWELKKKIQELKR [O10-bH], the interaction score in [21] is 0.392; in assay [22], -0.919; in assay [23] it was -1.91; in assay [24], 0.177; in assay [25], -1.44; in assay [26], -0.726. Besides, the interaction score in [27] was determined as 0.522; in assay [28], 0.103; in [29], 1.13; in [30] it was 0.524; in assay [31] it was 0.349; in assay [32], 0.0839. The interaction score in [33] was 0.671; in assay [34] it was -0.465; in assay [35], 0.317.
Regarding DENAQLEQKIAELKQKIAELKWENAQLEQ [4H1387-bA], the interaction score was -0.828 in assay [36]; -1.1 in [37]; 2.02 in [38]; -0.539 in assay [39]; 1.32 in assay [40]; 0.838 in assay [41].
As for DKNQQLKQKIQELKQKIQELKWENQELEQ [P12A-bN], the interaction score in assay [42] is -0.758; in assay [43], -1.71; in assay [44] it was -0.94; in [45], 1.82; in assay [46], -0.221; in assay [47], -1.2. For the same molecule, the interaction score in assay [48] is 0.295; in assay [49], -0.617; in [50], -1.71; in assay [51] it was -1.28.
For DKIKQLKQEIQRLEQENQRLEWENQKLEQ [O11-bP], the interaction score was -0.79 in [52]; 0.837 in assay [53]; -1.07 in [54]; -0.129 in assay [55]; -0.41 in assay [56]; -1.05 in assay [57]. The interaction score in assay [58] was -1.44; in [59], 0.514; in [60] it was 0.69; in assay [61] it was -0.395; in assay [62], -0.577; in assay [63], -1.03. Also, the interaction score in assay [64] is -0.376; in assay [65], -0.645.
